Values of other authors in US20100143424A1, “CASEIN NANOPARTICLE” (FUJIFILM CORPORATION, priority 2008, published 2010).

Conditions: casein derived from milk, Wako Pure Chemical Industries

casein
isoelectric point: 4.3
